{
  "source": "IntAct's records for PubMed 36833176",
  "target": "csk21_human CSNK2A1 (UniProt P68400)",
  "sequence (P68400 whole entry, looked up)": "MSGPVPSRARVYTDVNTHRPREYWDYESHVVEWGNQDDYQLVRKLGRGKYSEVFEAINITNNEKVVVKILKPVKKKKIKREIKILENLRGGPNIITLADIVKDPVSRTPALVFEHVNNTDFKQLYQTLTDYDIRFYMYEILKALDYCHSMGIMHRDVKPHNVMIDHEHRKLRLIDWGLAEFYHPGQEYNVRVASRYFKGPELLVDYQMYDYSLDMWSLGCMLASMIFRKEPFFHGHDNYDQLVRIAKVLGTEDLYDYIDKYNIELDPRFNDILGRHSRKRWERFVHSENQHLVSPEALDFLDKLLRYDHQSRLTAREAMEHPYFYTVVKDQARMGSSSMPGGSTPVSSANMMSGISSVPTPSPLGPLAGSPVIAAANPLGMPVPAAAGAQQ",
  "data": [
    {"substance": "Casein kinase II subunit beta (Homo sapiens), P67870 L39R", "values": [
      {"measurement": "effect of a mutation on the interaction", "value": "decreasing interaction strength"}
    ]}
  ]
}
